Experimental data as given in the supplement of paper PMC10567573.

B1: BCL2L13 (parent)
chain: YIIQQGGWGTVFSLESEEEEYPGI

Variants of: B1
Test: protein stability index of a GFP-peptide fusion (GPS, HEK-293T) (PSI 1-6); higher = more stable
Settings: c terminus: a fixed tail appended
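Also: lentivirally expressed fusions sorted by FACS into six bins by GFP to DsRed ratio, PSI derived from sequencing read proportions per bin multiplied by bin number.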

Variant | protein stability index
YIIQQGGWGTVFSIESEEEEYPGI | 1.76
YIIQQGGWGTVFSRESEEEEYPGI | 1.87
YIIQQGGWGTVFSVESEEEEYPGI | 1.98
YIIQQGGWGTVFSSESEEEEYPGI | 2.23
YIIQQGGWGTVFSHESEEEEYPGI | 1
YIIQQGGWGTVFSPESEEEEYPGI | 1.87
YIIQQGGWGTVFSTESEEEEYPGI | 2.2
YIIQQGGWGTVFSDESEEEEYPGI | 2.21
YIIQQGGWGTVFSKESEEEEYPGI | 1.5
YIIQQGGWGTVFSWESEEEEYPGI | 1.06
YIIQQGGWGTVFSEESEEEEYPGI | 2.57
YIIQQGGWGTVFSYESEEEEYPGI | 1.84
YIIQQGGWGTVFSQESEEEEYPGI | 1.78
YIIQQGGWGTDFSLESEEEEYPGI | 2.67
YIIQQGGWGTWFSLESEEEEYPGI | 1.42
YIIQQGGWGTIFSLESEEEEYPGI | 1.78
YIIQQGGWGTFFSLESEEEEYPGI | 2.93
YIIQQGGWGTQFSLESEEEEYPGI | 1.86
YIIQQGGWGTHFSLESEEEEYPGI | 2.25
YIIQQGGWGTNFSLESEEEEYPGI | 1.98
YIIQQGGWGTSFSLESEEEEYPGI | 2.61
YIIQQGGWGTRFSLESEEEEYPGI | 1.91
YIIQQGGWGTTFSLESEEEEYPGI | 1
YIIQQGGWGTKFSLESEEEEYPGI | 1.64

Variant | protein stability index
YIIQQGGWGTYFSLESEEEEYPGI | 2.04
YIIQQGGWGTPFSLESEEEEYPGI | 1.76
YIIQQGGWGTLFSLESEEEEYPGI | 1.36
YIIQQGGWGTAFSLESEEEEYPGI | 2.12
YIIQQGGWGTGFSLESEEEEYPGI | 3.31
YIIQQGGWGTVFSLSSEEEEYPGI | 2.81
YIIQQGGWGTVFSLPSEEEEYPGI | 2.02
YIIQQGGWGTVFSLKSEEEEYPGI | 1.27
YIIQQGGWGTVFSLQSEEEEYPGI | 2.31
YIIQQGGWGTVFSLNSEEEEYPGI | 2.34
YIIQQGGWGTVFSLGSEEEEYPGI | 1.82
YIIQQGGWGTVFSLFSEEEEYPGI | 2.92
YIIQQGGWGTVFSLLSEEEEYPGI | 2.57
YIIQQGGWGTVFSLMSEEEEYPGI | 3.49
YIIQQGGWGTVFSLTSEEEEYPGI | 1.67
YIIQQGGWGDVFSLESEEEEYPGI | 1.31
YIIQQGGWGRVFSLESEEEEYPGI | 1.6
YIIQQGGWGPVFSLESEEEEYPGI | 1.07
YIIQQGGWGSVFSLESEEEEYPGI | 2.34
YIIQQGGWGHVFSLESEEEEYPGI | 1.11
YIIQQGGWGNVFSLESEEEEYPGI | 2.35
YIIQQGGWGIVFSLESEEEEYPGI | 3.06
YIIQQGGWGFVFSLESEEEEYPGI | 2.42
YIIQQGGWGEVFSLESEEEEYPGI | 1.17

Variant | protein stability index
YIIQQGGWGMVFSLESEEEEYPGI | 1.4
YIIQQGGWETVFSLESEEEEYPGI | 2.65
YIIQQGGWCTVFSLESEEEEYPGI | 3.36
YIIQQGGWKTVFSLESEEEEYPGI | 1.7
YIIQQGGWDTVFSLESEEEEYPGI | 1.13
YIIQQGGWQTVFSLESEEEEYPGI | 1.81
YIIQQGGWLTVFSLESEEEEYPGI | 3.44
YIIQQGGWVTVFSLESEEEEYPGI | 3.32
YIIQQGGWITVFSLESEEEEYPGI | 3.4
YIIQQGGWRTVFSLESEEEEYPGI | 1.06
YIIQQGGWSTVFSLESEEEEYPGI | 1.68
YIIQQGGWATVFSLESEEEEYPGI | 1.62
YIIQQGGWPTVFSLESEEEEYPGI | 1.09
YIIQQGGWHTVFSLESEEEEYPGI | 1.42
YIIQQGGWTTVFSLESEEEEYPGI | 3
YIIQQGGWGTVFCLESEEEEYPGI | 1.49
YIIQQGGWGTVFVLESEEEEYPGI | 2.28
YIIQQGGWGTVFELESEEEEYPGI | 1.33
YIIQQGGWGTVFDLESEEEEYPGI | 2.72
YIIQQGGWGTVFPLESEEEEYPGI | 1.38
YIIQQGGWGTVFTLESEEEEYPGI | 1.62
YIIQQGGWGTVFHLESEEEEYPGI | 1.43
YIIQQGGWGTVFGLESEEEEYPGI | 1.74
YIIQQGGWGTVFFLESEEEEYPGI | 2.46

Variant | protein stability index
YIIQQGGWGTVFLLESEEEEYPGI | 1.24
YIIQQGGWGTVFNLESEEEEYPGI | 3.23
YIIQQGGWGTVFYLESEEEEYPGI | 1.71
YIIQQSGWGTVFSLESEEEEYPGI | 1.73
YIIQQNGWGTVFSLESEEEEYPGI | 2.15
YIIQQDGWGTVFSLESEEEEYPGI | 1.42
YIIQQVGWGTVFSLESEEEEYPGI | 1.23
YIIQQRGWGTVFSLESEEEEYPGI | 2.02
YIIQQWGWGTVFSLESEEEEYPGI | 1.14
YIIQQFGWGTVFSLESEEEEYPGI | 1.97
YIIQQPGWGTVFSLESEEEEYPGI | 2.12
YIIQQEGWGTVFSLESEEEEYPGI | 2.06
YIIQQHGWGTVFSLESEEEEYPGI | 1.48
YIIQQTGWGTVFSLESEEEEYPGI | 2.31
YIIQQKGWGTVFSLESEEEEYPGI | 2.9
YIIHQGGWGTVFSLESEEEEYPGI | 1.2
YIIWQGGWGTVFSLESEEEEYPGI | 2.88
YIINQGGWGTVFSLESEEEEYPGI | 1.58
YIIVQGGWGTVFSLESEEEEYPGI | 3.01
YIIRQGGWGTVFSLESEEEEYPGI | 2.35
YIIEQGGWGTVFSLESEEEEYPGI | 1.4
YIIAQGGWGTVFSLESEEEEYPGI | 2.19
